These results are taken from EP3492597A2.

The assay has as its target human hepatocyte growth factor receptor (hHGFR) (human) (UniProt P08581). Put plainly: cell-based or functional assay.
Sequence of UniProt P08581 (P08581 25-1390): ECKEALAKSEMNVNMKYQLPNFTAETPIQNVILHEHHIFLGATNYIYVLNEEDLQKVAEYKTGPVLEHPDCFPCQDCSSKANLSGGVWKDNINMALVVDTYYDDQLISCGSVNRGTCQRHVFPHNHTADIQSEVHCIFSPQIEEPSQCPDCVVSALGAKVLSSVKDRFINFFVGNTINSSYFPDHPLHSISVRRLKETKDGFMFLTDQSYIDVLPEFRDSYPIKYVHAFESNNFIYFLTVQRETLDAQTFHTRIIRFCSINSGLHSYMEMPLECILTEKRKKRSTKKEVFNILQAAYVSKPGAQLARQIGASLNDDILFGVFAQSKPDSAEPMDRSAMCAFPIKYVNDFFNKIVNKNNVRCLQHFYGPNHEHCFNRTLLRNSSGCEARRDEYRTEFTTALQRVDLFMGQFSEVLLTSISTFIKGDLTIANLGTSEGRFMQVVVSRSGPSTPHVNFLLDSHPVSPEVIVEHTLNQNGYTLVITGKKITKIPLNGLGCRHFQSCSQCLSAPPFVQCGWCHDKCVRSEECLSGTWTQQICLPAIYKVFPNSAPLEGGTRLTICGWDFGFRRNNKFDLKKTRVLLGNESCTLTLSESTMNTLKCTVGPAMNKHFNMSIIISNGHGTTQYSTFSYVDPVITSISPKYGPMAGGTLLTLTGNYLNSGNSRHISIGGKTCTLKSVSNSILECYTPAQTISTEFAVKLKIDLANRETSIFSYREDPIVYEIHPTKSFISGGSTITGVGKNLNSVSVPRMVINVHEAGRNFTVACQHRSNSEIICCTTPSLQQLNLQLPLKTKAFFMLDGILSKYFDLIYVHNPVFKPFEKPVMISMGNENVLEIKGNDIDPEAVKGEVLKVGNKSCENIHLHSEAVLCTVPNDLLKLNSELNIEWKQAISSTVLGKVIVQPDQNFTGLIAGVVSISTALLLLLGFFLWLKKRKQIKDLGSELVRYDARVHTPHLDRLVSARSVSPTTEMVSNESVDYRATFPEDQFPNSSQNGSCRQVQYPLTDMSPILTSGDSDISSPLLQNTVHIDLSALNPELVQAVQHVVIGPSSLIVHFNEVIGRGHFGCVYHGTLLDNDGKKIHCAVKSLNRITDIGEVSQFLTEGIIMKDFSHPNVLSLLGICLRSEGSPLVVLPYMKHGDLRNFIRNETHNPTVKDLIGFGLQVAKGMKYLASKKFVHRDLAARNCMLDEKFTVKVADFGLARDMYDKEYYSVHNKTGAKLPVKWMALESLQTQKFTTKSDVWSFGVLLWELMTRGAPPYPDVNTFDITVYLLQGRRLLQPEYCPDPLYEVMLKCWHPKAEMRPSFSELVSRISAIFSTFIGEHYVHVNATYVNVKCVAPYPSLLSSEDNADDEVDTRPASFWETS

Consider “S663V+T492V mutant AAV3 capsid (rAAV3-S663V+T492V vector)”, for which the transduction of T47D+hHGFR cells against parental T47D cells is above 5 fold. Turning to “wild-type AAV3 capsid (scAAV3-CBAp-EGFP vector)”, the transduction efficiency (EGFP expression, 72 hr) in T47D+hHGFR cells against T47D cells was 8 to 13 fold and the transduction of T47D+hHGFR cells against parental T47D cells was above 5 fold. In the case of “Y705+731F double-mutant AAV3 capsid (Y705+731F scAAV3-CBAp-EGFP vector)”, the transduction of T47D+hHGFR cells against parental T47D cells was above 5 fold.
